For the test, the target named is Keap1 Kelch domain (amino acid residues 309 to 624) (human) (UniProt Q14145). The experiment in a line: ITC; MicroCal ITC200, 25 °C, 20 mM Tris‐HCl and 150 mM NaCl; Kelch and synthetic PGAM5 peptides; 19 injections at 2‐min intervals. (ITC needs no label: the signal is the heat of the interaction.)
Keap1 Kelch domain (amino acid residues 309 to 624) (human), sequence (Q14145 309-624): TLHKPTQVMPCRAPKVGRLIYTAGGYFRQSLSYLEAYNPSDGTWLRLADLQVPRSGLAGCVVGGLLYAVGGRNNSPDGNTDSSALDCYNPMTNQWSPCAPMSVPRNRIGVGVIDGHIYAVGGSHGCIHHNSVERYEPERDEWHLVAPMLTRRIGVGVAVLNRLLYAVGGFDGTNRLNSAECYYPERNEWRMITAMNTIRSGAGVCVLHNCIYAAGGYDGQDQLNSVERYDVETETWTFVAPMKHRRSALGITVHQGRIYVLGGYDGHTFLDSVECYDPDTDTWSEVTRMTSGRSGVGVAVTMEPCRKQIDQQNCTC

For “E79A mutant based on the PGAM5 20‐mer peptide”, the equilibrium dissociation constant (Kd) came to 37.7 µM.
“PGAM5 20‐mer peptide (based on the ESGE motif)” had a Kd of 0.107 µM. This Kd lies about 350-fold lower than the previous one.

The term Kd denotes a measure of binding affinity in units of concentration. Low values mean tighter binding, high ones weaker binding.

The record behind these values is publication PMC11481384.
